Measured values reported in US7129072.

Target: FGFR1 D2-D3 (residues 142-365 of human FGFR1) (human) (UniProt P11362)
Assay: calculated from the X-ray crystal structure

Chain of FGFR1 D2-D3 (residues 142-365 of human FGFR1) (human) (P11362 149-359 limits assumed): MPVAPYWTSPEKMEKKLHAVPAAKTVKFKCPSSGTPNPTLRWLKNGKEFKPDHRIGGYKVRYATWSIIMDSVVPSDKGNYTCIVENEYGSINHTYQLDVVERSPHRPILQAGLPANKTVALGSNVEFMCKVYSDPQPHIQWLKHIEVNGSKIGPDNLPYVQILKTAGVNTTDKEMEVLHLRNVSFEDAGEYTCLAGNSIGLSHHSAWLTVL

FGF1 (from UniProt P05230 21-155) (ligand)
total accessible surface area buried in the complex: 2200 Å^2
